Results: US20220195055A1 (SHANDONG BOAN BIOTECHNOLOGY, published 2022)
Where a chain is given by its changes, count along the chain named. Where two headings read alike, the source gives them in different places.

B1: CD25Q14-BA443-IgG1 (antibody, V domains shown)
VH: EVQLVQSGAEVKKPGESLKISCKGSGYSFSNYWIGWVRQMPGKGLEWMGIISPGDSTTKYSPSFQGQVTFSADKSTSTAYLQWSSLQASDTAMYYCVRGPYYLDYWGQGTLVTVSS
VL: DIQMTQSPSTLSASVGDRVTITCRASQSVSGYLAWYQQKPGKAPKLLIYKTSSLESGVPSRFSGSGSGTDFTLTISSLQAEDVAVYYCQQYYSTPWTFGQGTKVEIKR
notes: IgG1 expressed in HEK293
B2: CD25Q14-BA458-IgG1 (antibody, V domains shown)
VH: B1 VH
VL: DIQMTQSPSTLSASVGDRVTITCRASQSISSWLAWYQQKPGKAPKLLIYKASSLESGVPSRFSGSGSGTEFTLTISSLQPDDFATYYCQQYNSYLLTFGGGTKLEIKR
notes: IgG1 expressed in HEK293
B3: CD25Q11-BA415-IgG1 (antibody, V domains shown)
VH: QVQLVQSGTEVKKPGESLKISCEGVGYSFTTYWIGWVRQMPGKGLEWMGIIYPGDSITRYSPSFQGQVTISADKSINTAYLQWSSLMASDTAMYYCVRGPHWGDYWGQGTLVTVSS
VL: DIQMTQSPSTLSASVGDRVTITCRASQSISTWLAWYQQKPGKAPKLLIYKASSLESGVPSRFSGSGSGTEFTLTISSLQPDDFAAYYCQQYSSYSWTFGQGTKVEIKR
notes: IgG1 expressed in HEK293
B4: CD25Q14-CA721-IgG1 (antibody, V domains shown)
VH: QVQLVQSGAEVKKPGESLKISCKGSGYSFANYWIVWVRQMPGKGLEWMGIIYPDDSETRYSPSFQGQVTFSADKSISTAYLQWSSLKASDTAMYYCTRGPYYSDYWGQGTLVTVSS
VL: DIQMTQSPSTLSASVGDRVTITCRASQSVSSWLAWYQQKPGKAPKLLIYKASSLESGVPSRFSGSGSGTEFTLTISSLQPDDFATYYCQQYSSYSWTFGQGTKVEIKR
notes: IgG1 expressed in HEK293
B5: CD25Q3-BA125-IgG1 (antibody, V domains shown)
VH: B4 VH with Q1E
VL: B3 VL with S28I, T31G, W32Y, T69A, A85T, S92N, S95T
notes: IgG1; also called CD25Q2-BA125
B6: CD25Q14-BA448-IgG1 (antibody, V domains shown)
VH: B4 VH with Q1E, S28N, I51T
VL: B3 VL with T31S, A85T, S92D, S93R, Y94F
notes: IgG1; The VH is copied as printed. 'YVVGQG' near its end may be a misprint of 'YWGQG'
B7: CD25Q14-CA705-IgG1 (antibody, V domains shown)
VH: B4 VH with Q1E
VL: DIQMTQSPSTLSASVGDRVSITCRASQSIGSWLAWYQQKPGKAPKLLIFEASNLESGVPSRFSGSGSGTEFTLTISNLQPDDFATYYCQQYNSYSLTFGGGTKVEIKR
notes: IgG1 expressed in HEK293
B8: CD25Q14-CA707-IgG1 (antibody, V domains shown)
VH: B1 VH
VL: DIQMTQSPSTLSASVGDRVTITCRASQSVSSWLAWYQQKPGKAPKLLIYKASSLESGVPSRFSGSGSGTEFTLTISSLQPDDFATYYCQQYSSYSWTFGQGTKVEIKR
notes: IgG1 expressed in HEK293
B9: CD25Q2-BA9-IgG1 (antibody, V domains shown)
VH: QVQLQQWGAGLLKPSETLSLTCAVYGGSFSGYYWSWIRQPPGKGLEWIGEIDHSGSTIYNPSLKSRVTISLDTSKNQFSLKLSSVTAADTALYYCARGEAFDIWGQGTMVTVSS
VL: B3 VL with Q3V, I29L, S30R, T31S, W32Y, A85T, S92N
notes: IgG1 expressed in HEK293; also called CD25Q-BA9-IgG1
B10: CD25Q11-BA410-IgG1 (antibody, V domains shown)
VH: B9 VH with Y32H, P40S, S56N, T57A, L71I, L92V, I103L
VL: not shown
notes: IgG1 expressed in HEK293
B11: CD25Q11-BA422-IgG1 (antibody, V domains shown)
VH: QVQLVQSGAEVKKPGSSVKVSCKASGGTFSSSAISWVRQAPGQGLDWMGRIIPLLNIADYAQKFQGRVTFTADKSTNTAYMELSSLRSEDTAVYYCARDGSGYDSNYWYFDLWGRGTLVTVSS
VL: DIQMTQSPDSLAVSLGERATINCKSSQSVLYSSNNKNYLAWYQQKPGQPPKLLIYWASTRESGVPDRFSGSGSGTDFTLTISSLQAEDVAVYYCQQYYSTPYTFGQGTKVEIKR
notes: IgG1 expressed in HEK293
B12: CD25Q11-BA428-IgG1 (antibody, V domains shown)
VH: B4 VH with A30T, Y52S, D54G, E57T, T97A, R98I, S103L, D104E
VL: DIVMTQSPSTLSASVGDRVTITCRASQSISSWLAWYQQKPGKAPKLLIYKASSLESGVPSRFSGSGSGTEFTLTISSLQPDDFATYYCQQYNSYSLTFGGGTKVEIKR
notes: IgG1 expressed in HEK293
B13: CD25Q11-BA402-IgG1 (antibody, V domains shown)
VH: B4 VH with A30S, V35A, D54G, E57A, F70I, S77N, K87R, T97A, S103F, D104E
VL: B3 VL with Q3V, I21L, T31S, W32Y, S53T, A85T, Q90H, S92N, W96V, Q100G
notes: IgG1 expressed in HEK293
B14: CD25Q11-CA36-IgG1 (antibody, V domains shown)
VH: QVQLVQSGAEVKQPGSSVKVSCKTSGGTFGSSAINWVRQAPGQGLEWMGRIIPIFGVSNFAQKFQGRVTITADKSTNTAYMELSSLRSEDTAVYYCARDGSGYDSNYWYFDLWGRGTLVTVSS
VL: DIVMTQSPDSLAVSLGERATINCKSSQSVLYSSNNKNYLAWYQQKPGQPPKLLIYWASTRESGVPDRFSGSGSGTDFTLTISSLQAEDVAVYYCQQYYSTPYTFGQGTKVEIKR
notes: IgG1 expressed in HEK293
B15: CD25Q11-BA406-IgG1 (antibody, V domains shown)
VH: EVQLVQSGAEVKKPGESLKISCKGSGYSFTNYWIAWVRQMPGKGLEWMGIIYPGDSVTRYSPSFQGQVTISADKSINTAYLQWSSLRASDTAMYYCARGPYYFEYWGQGTLVTVSS
VL: DIVMTQSPSTLSASVGDRVTITCRASQSISSFLAWYQQKPGRAPELLIYKASTLESRVPSRFSGSGSGTEFTLTISSLQPEDFATYYCQQYKSFSWTVGQGTKVEIKR
notes: IgG1 expressed in HEK293

Key:
[1] = molecular target: T1, CD25 protein (Sino Biological, 10165-H08H) (UniProt P01589 22-213); experiment: SPR (BIAcore 8K); antibody captured by anti-human IgG Fc, CD25 protein as analyte, 1:1 model
T1 construct: Bought recombinant protein; It speaks elsewhere of human CD25; also called antigen CD25; IL-2Rα
T1 sequence (looked up): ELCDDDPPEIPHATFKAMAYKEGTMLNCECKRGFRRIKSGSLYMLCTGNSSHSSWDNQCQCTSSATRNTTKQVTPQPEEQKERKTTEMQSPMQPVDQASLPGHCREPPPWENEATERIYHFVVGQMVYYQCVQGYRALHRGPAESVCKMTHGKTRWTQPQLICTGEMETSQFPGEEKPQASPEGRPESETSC
Protocol: Antibody binding kinetics uses BIAcore8K instrument based on surface plasmon resonance (SRP) technology to measure. Anti-human IgG antibody amino was coupled to a CMS biosensor chip by the GE anti Human IgG Fc amino coupling kit (GE, cat # BR-1008-39) to obtain approximately 1000 response units (RU). For kinetic measurements, the CD25 protein (Sino Biological, 10165-H08H) was diluted 2-fold continuously with HBS-EP+1×(GE, BR-1008-26) buffer, starting at 50 nM, being diluted 2-fold for 4 concentration gradients and setting 0 concentration. The antibody to be detected: 2 μg/ml, sample injection time 70 s, flow rate 5 μL/min, stable for 5 s; CD25 protein: binding for 60 s, flow rate 30 μL/min, dissociation for 450 s; regeneration: regeneration was performed for 30 s with 3M MgCl₂ buffer, Startup 3 times. The association constant (ka) and dissociation constant (kd) were calculated using a simple one-to-one Languir binding model (BIAcore Evaluation Software version 3.2), and the equilibrium dissociation constant (KD) was calculated by the ratio kd/ka.

[2] = molecular target: T1, CD25 protein (Sino Biological, …); experiment: ELISA; CD25 protein coated in a dilution series, antibody at one fixed concentration, anti-human IgG/HRP
Text: (§1) The results are shown in FIG. 2A to FIG. 2E and Table 2 to Table 6.

[3] = molecular target: T2, CD25 on cells (SU-DHL-1 target cells; PBMC) (UniProt P01589 22-272, limits assumed); experiment: cell-based or functional assay
T2 sequence (looked up): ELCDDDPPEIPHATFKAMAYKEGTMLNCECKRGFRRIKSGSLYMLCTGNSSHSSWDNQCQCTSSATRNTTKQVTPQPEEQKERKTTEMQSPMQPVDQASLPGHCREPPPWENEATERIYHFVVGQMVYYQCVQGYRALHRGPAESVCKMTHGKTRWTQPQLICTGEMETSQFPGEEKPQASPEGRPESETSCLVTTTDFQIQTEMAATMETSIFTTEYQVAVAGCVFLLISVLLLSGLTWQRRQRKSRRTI

[4] = molecular target: T1, CD25 protein (Sino Biological, …); experiment: ELISA; CD25 protein coated in a dilution series, antibody at one fixed concentration, anti-human IgG/HRP; remark: listed apart in the source
Text: as §1

[5] = molecular target: T1, CD25 protein (Sino Biological, …); experiment: as above; remark: listed apart in the source
Text: as §1

[6] = molecular target: T2, CD25 on cells (SU-DHL-1 target cells; …); experiment: cell-based or functional assay; remark: listed apart in the source
[7] = molecular target: T1, CD25 protein (Sino Biological, …); experiment: ELISA; CD25 protein coated in a dilution series, antibody at one fixed concentration, anti-human IgG/HRP; remark: listed apart in the source
Text: as §1

[8] = molecular target: T2, CD25 on cells (SU-DHL-1 target cells; …); experiment: cell-based or functional assay; remark: listed apart in the source

Binder | Kd [1] [nM] | koff [1] [s⁻¹] | kon [1] [M⁻¹ s⁻¹] | EC50 [2] [ng/mL] | EC50 of simulated killing activity (Jurkat effector reporter cells, SU-DHL-1 target cells, luminescence) [3] [ng/mL] | EC50 [4] [ng/mL] | EC50 [5] [ng/mL] | EC50 of simulated killing activity (Jurkat effector reporter cells, SU-DHL-1 target cells, luminescence) [6] [ng/mL] | EC50 [7] [ng/mL] | % PSTAT5 in CD3 positive T cells of PBMC after IL2, with 10 µg/mL antibody [8] [%]
B1 | 1.48 | 0.000201 | 136000 | 1.06 | 360 |  |  |  |  | 
B2 | 0.596 | 0.000216 | 362000 | 1 | 266 |  |  |  |  | 
B3 | 0.614 | 0.000199 | 323000 |  | 233 | 0.941 |  |  |  | 
B4 | 0.536 | 0.000365 | 680000 |  | 288 |  | 3.25 |  |  | 
B5 | 0.431 | 0.000301 | 699000 |  |  |  |  | 251 | 1.61 | 
B6 | 0.904 | 0.000531 | 587000 | 2.68 |  |  |  |  |  | 
B7 | 1.97 | 0.000752 | 381000 |  |  | 4.77 |  | 409 |  | 
B8 | 2.85 | 0.000944 | 331000 |  | 248 |  | 6.42 |  |  | 
B9 | 0.843 | 0.000586 | 696000 |  |  |  |  | 236 | 3.33 | 26.1
B10 | 4.81 | 0.00674 | 1.4e+06 |  |  | 16.8 |  | 215 |  | 16.8
B11 |  |  |  | 1.3 |  |  |  | 836 |  | 18.1
B12 | 0.379 | 0.00021 | 555000 | 0.597 |  |  |  | 217 |  | 
B13 | 0.607 | 0.000212 | 350000 |  |  |  |  | 443 | 0.674 | 
B14 | 1.61 | 9.66e-05 | 60200 |  |  | 2.41 |  |  |  | 
B15 |  |  |  |  |  | 0.651 |  |  |  | 
